Target: thiolated anti-CD34 antibody conjugated to gas-filled microbubbles encapsulated with DSPS and comprising DSPE-PEG2000-MAL
Assay: flow cytometry of anti-CD34-conjugated microbubbles after incubation with the FITC-labelled secondary antibody and washing

Substance: FITC-conjugated goat-anti-mouse antibody
- % of microbubble population fluorescent: 98%

Source: patent US20020102215A1
